Reference: patent publication US20220195023A1

How the values were obtained:
[1] = molecular target: (NVDP)3(NANP)2 (Plasmodium falciparum); test: BLI, target on sensor
[2] = molecular target: … (Plasmodium falciparum); test: BLI, target on sensor
[3] = molecular target: (NANP)6 (Plasmodium falciparum); test: BLI, target on sensor
[4] = molecular target: (NPNA)3 (Plasmodium falciparum); test: BLI, target on sensor
[5] = molecular target: (NANP)6 (Plasmodium falciparum); test: SPR, antibody on chip
[6] = molecular target: (NPNA)3 (Plasmodium falciparum); test: SPR, antibody on chip
[7] = molecular target: NANPNVDP (Plasmodium falciparum); test: BLI, target on sensor

B1: AB-007060 (antibody, V domains shown)
VH: QMQLVESGGGVVQPGRSLRLSCTASGFTFSTYAMHWVRQSPGQGLQWVAVISYHSTNKYYEDSVRGRFTISRDNSKNTLYLQMNSLRAEDTAVYYCARDGYSSSYFDFWGQGTLVTVSS
VL: DIQMTQSPSTLSASVGDRVAITCRASQSISRWLAWYQQQPGKAPKLLMSGASVLESGVPSRFSGSGSGTEFTLTISSLQPDDFATYYCQHYNSYFVTFGQGTKVEIK
- Kd [1]: 45.2 nM
- Kd [2]: 43.2 nM
- Kd [3]: 0.898 nM
- Kd [4]: 1.14 nM
- Kd [5]: 1.21 nM
- Kd [6]: 212 nM

B2: AB-007069 (antibody, V domains shown)
VH: QMQLVESGGGVVQPGRSLRLSCTASGFTFSTYAMHWVRQSPGQGLQWVAVISYHSTNKYYEDSVRGRFTISRDNSKNTLYLQMNSLRAEDTAVYYCARDGYSSSFFDFWGQGTLVTVSS
VL: DIQMTQSPSTLSASVGDRVAITCRASQSISRWLAWYQQQPGKAPKLLMSVASVLESGVPSRFSGSGSGTEFTLTISSLQPDDFATYYCQHYNSYFVTFGQGTKVEIK
- Kd [7]: 26.6 nM
- Kd [1]: 28.7 nM
- Kd [2]: 27.5 nM
- Kd [3]: 1.33 nM
- Kd [4]: 1.43 nM
- Kd [5]: 1.85 nM
- Kd [6]: 204 nM

B3: AB-007053 (antibody, V domains shown)
VH: QMQLVESGGGVVQPGRSLRLSCTASGFTFSTYAMHWVRQSPGQGLQWVAVISYHSTQKYYEDSVRGRFTISRDNSKNTLYLQMNSLRAEDTAVYYCARDGYSSSFFDFWGQGTLVTVSS
VL: DIQMTQSPSTLSASVGDRVAITCRASQSISRWLAWYQQQPGKAPKLLMSGASVLESGVPSRFSGSGSGTEFTLTISSLQPDDFATYYCQHYNSYFVTFGQGTKVEIK
- Kd [7]: 24.7 nM
- Kd [1]: 25.8 nM
- Kd [2]: 23.5 nM
- Kd [3]: 1.37 nM
- Kd [4]: 0.552 nM
- Kd [5]: 1.42 nM
- Kd [6]: 112 nM

B4: AB-007058 (antibody, V domains shown)
VH: QMQLVESGGGVVQPGRSLRLSCTASGFTFSTYAMHWVRQSPGQGLQWVAVISYHSTNKYYEDSVRGRFTISRDNSKNTLYLQMNSLRAEDTAVYYCARDGYSTSFFDFWGQGTLVTVSS
VL: DIQMTQSPSTLSASVGDRVAITCRASQSISRWLAWYQQQPGKAPKLLMSGASVLESGVPSRFSGSGSGTEFTLTISSLQPDDFATYYCQHYNSYFVTFGQGTKVEIK
- Kd [1]: 42.2 nM
- Kd [2]: 46.3 nM
- Kd [3]: 1.14 nM
- Kd [4]: 1.3 nM
- Kd [5]: 0.137 nM
- Kd [6]: 339 nM

B5: AB-007048 (antibody, V domains shown)
VH: QMQLVESGGGVVQPGRSLRLSCTASGFTFSTYSMHWVRQSPGQGLQWVAVISYHSTNKYYEDSVRGRFTISRDNSKNTLYLQMNSLRAEDTAVYYCARDGYSSSFFDFWGQGTLVTVSS
VL: DIQMTQSPSTLSASVGDRVAITCRASQSISRWLAWYQQQPGKAPKLLMSGASVLESGVPSRFSGSGSGTEFTLTISSLQPDDFATYYCQHYNSYFVTFGQGTKVEIK
- Kd [1]: 34.6 nM
- Kd [2]: 28.6 nM
- Kd [3]: 1.46 nM
- Kd [4]: 3.33 nM
- Kd [5]: 1 nM
- Kd [6]: 1550 nM

B6: AB-007066 (antibody, V domains shown)
VH: QMQLVESGGGVVQPGRSLRLSCTASGFTFSTYAMHWVRQSPGQGLQWVAVISYHSTNKYYEDSVRGRFTISRDNSKNTLYLQMNSLRAEDTAVYYCARDGYSSSFFDFWGQGTLVTVSS
VL: DIQMTQSPSTLSASVGDRVAITCRASQSISRWLAWYQQQPGKAPKLLMSQASVLESGVPSRFSGSGSGTEFTLTISSLQPDDFATYYCQHYNSYFVTFGQGTKVEIK
- Kd [1]: 22.4 nM
- Kd [2]: 26.6 nM
- Kd [3]: 0.315 nM
- Kd [4]: 3.58 nM
- Kd [5]: 0.979 nM
- Kd [6]: 357 nM

B7: AB-007064 (antibody, V domains shown)
VH: QMQLVESGGGVVQPGRSLRLSCTASGFTFSTYAMHWVRQSPGQGLQWVAVISYHSTNKYYEDSVRGRFTISRDNSKNTLYLQMNSLRAEDTAVYYCARDGYSSSFFDFWGQGTLVTVSS
VL: DIQMTQSPSTLSASVGDRVAITCRASQSISRWLAWYQQQPGKAPKLLMTGASVLESGVPSRFSGSGSGTEFTLTISSLQPDDFATYYCQHYNSYFVTFGQGTKVEIK
- Kd [7]: 36.7 nM
- Kd [1]: 33.7 nM
- Kd [2]: 30.9 nM
- Kd [3]: 0.434 nM
- Kd [4]: 0.453 nM
- Kd [5]: 0.192 nM
- Kd [6]: 152 nM

B8: AB-007045 (antibody, V domains shown)
VH: QMQLVESGGGVVQPGRSLRLSCTASGFTFSTYAMHWVRQSPGQGLQWVAVISYHSTNKYYEDSVRGRFTISRDNSKNTLYLQMNSLRAEDTAVYYCARDAYSSSFFDFWGQGTLVTVSS
VL: DIQMTQSPSTLSASVGDRVAITCRASQSISRWLAWYQQQPGKAPKLLMSGASVLESGVPSRFSGSGSGTEFTLTISSLQPDDFATYYCQHYNSYFVTFGQGTKVEIK
- Kd [7]: 28.2 nM
- Kd [1]: 43.9 nM
- Kd [2]: 43.6 nM
- Kd [3]: 0.703 nM
- Kd [4]: 0.734 nM
- Kd [5]: 2.35 nM
- Kd [6]: 246 nM

B9: AB-007056 (antibody, V domains shown)
VH: QMQLVESGGGVVQPGRSLRLSCTASGFTFSTYAMHWVRQSPGQGLQWVAVISYHSTNKYYEDSVRGRFTISRDNSKNTLYLQMNSLRAEDTAVYYCARDGYQSSFFDFWGQGTLVTVSS
VL: DIQMTQSPSTLSASVGDRVAITCRASQSISRWLAWYQQQPGKAPKLLMSGASVLESGVPSRFSGSGSGTEFTLTISSLQPDDFATYYCQHYNSYFVTFGQGTKVEIK
- Kd [7]: 29.6 nM
- Kd [1]: 24.9 nM
- Kd [2]: 23.6 nM
- Kd [3]: 0.88 nM
- Kd [4]: 0.263 nM
- Kd [5]: 0.104 nM
- Kd [6]: 62 nM

B10: AB-007067 (antibody, V domains shown)
VH: QMQLVESGGGVVQPGRSLRLSCTASGFTFSTYAMHWVRQSPGQGLQWVAVISYHSTNKYYEDSVRGRFTISRDNSKNTLYLQMNSLRAEDTAVYYCARDGYSSSFFDFWGQGTLVTVSS
VL: DIQMTQSPSTLSASVGDRVAITCRASQSISRWLAWYQQQPGKAPKLLMSSASVLESGVPSRFSGSGSGTEFTLTISSLQPDDFATYYCQHYNSYFVTFGQGTKVEIK
- Kd [1]: 34 nM
- Kd [2]: 36.1 nM
- Kd [3]: 0.647 nM
- Kd [4]: 2.02 nM
- Kd [5]: 0.244 nM
- Kd [6]: 207 nM

B11: AB-007050 (antibody, V domains shown)
VH: QMQLVESGGGVVQPGRSLRLSCTASGFTFSTYAMHWVRQSPGQGLQWVAVISQHSTNKYYEDSVRGRFTISRDNSKNTLYLQMNSLRAEDTAVYYCARDGYSSSFFDFWGQGTLVTVSS
VL: DIQMTQSPSTLSASVGDRVAITCRASQSISRWLAWYQQQPGKAPKLLMSGASVLESGVPSRFSGSGSGTEFTLTISSLQPDDFATYYCQHYNSYFVTFGQGTKVEIK
- Kd [1]: 33.4 nM
- Kd [2]: 37.4 nM
- Kd [3]: 0.856 nM
- Kd [4]: 1.05 nM
- Kd [5]: 0.54 nM
- Kd [6]: 271 nM

B12: AB-007055 (antibody, V domains shown)
VH: QMQLVESGGGVVQPGRSLRLSCTASGFTFSTYAMHWVRQSPGQGLQWVAVISYHSTNKYYEDSVRGRFTISRDNSKNTLYLQMNSLRAEDTAVYYCARDGYTSSFFDFWGQGTLVTVSS
VL: DIQMTQSPSTLSASVGDRVAITCRASQSISRWLAWYQQQPGKAPKLLMSGASVLESGVPSRFSGSGSGTEFTLTISSLQPDDFATYYCQHYNSYFVTFGQGTKVEIK
- Kd [3]: 1.61 nM
- Kd [4]: 3.62 nM
- Kd [5]: 0.403 nM
- Kd [6]: 1470 nM
